The source of these data is paper doi:10.1101/2022.04.26.489529 (bioRxiv, 2022).

In assay [1] the target is S protein of the SARS-CoV-2 strain D614G (SARS-CoV-2, D614G, UniProt A0A6H1PJZ3, D614G). The experiment in a line: ELISA.
Assay [2] deals with stabilized Omicron S ECD HexaPro (SARS-CoV-2 Omicron BA.1, N440K | S477N | T478K | E484A | Q493R). As to the kind of experiment: cryo-EM structure.

B1: 58G6 (antibody, V domains shown)
VH: QMQLVQSGPEVKKPGTSVKVSCKASGFTFSSSAVQWVRQARGQHLEWIGWIVVGSGNTNYAQKFQERVTLTRDMSTRTAYMELSSLRSEDTAVYYCAAPNCNSTTCHDGFDIWGQGTVVTVSS
VL: EIVLTQSPGTLSLSPGERATLSCRASQSVRSSYLGWYQQKPGQAPRLLIYGASSRATGIPDRFSGSGSGTDFTLTISRLESEDFAVYYCQQYDNSPWTFGQGTKVEIK
Consider B1, for which the binding result in assay [1] is “binds”.

B2: 58G6 Fab (Fab, V domains shown)
VH: QMQLVQSGPEVKKPGTSVKVSCKASGFTFSSSAVQWVRQARGQHLEWIGWIVVGSGNTNYAQKFQERVTLTRDMSTRTAYMELSSLRSEDTAVYYCAAPNCNSTTCHDGFDIWGQGTVVTVSS
VL: EIVLTQSPGTLSLSPGERATLSCRASQSVRSSYLGWYQQKPGQAPRLLIYGASSRATGIPDRFSGSGSGTDFTLTISRLESEDFAVYYCQQYDNSPWTFGQGTKVEIK
Turning to B2, the “stoichiometry N” value in assay [2] came out at 1 Fab per trimer.
